Measurements: publication PMC9453709

Target: SARS-CoV-2 Omicron BA.1 S glycoprotein ectodomain with S6P and GSAS mutations (SARS-CoV-2)
Experiment: cryo-EM structure

Question: For “SARS-CoV-2 Omicron BA.1 S glycoprotein ectodomain with S6P and GSAS mutations (domain or fragment)”, which stoichiometry N is on record?
Answer: Its stoichiometry N is 3.
